Measurements published in US10562947B2, “Compositions and methods for preventing or treating diseases, conditions or processes characterized by aberrant fibroblast proliferation and extracellular matrix deposition” (MOERAE MATRIX, INC., priority 2011, dated 2020).

Key:
Experiment in all cases: Kinase Profiling Assay
Type in all cases: biochemical
Details in all cases: 100 μM peptide
Tec(h) activated = molecular target: T1, Tec(h) activated (Homo sapiens, UniProt P42680)
T1 sequence (P42680 1-631): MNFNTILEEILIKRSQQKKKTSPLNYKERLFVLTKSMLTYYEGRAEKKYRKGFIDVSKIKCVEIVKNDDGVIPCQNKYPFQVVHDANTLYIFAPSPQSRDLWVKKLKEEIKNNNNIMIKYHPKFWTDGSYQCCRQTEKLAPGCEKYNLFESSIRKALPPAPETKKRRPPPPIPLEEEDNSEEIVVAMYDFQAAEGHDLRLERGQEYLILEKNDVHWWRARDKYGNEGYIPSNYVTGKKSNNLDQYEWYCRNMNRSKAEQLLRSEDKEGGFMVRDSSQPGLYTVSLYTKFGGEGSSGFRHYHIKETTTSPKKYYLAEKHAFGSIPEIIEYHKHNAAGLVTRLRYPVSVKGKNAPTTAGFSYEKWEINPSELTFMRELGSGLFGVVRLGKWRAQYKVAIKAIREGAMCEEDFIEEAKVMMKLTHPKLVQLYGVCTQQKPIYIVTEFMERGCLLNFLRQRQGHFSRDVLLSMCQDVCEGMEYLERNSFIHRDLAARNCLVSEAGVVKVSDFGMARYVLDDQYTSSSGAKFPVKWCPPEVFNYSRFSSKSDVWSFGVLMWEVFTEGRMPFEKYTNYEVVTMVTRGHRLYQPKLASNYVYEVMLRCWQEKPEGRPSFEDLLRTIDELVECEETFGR
Summary of the method: (§1)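 Duplicate activity readings per kinase; peptide inhibitors of MK2 profiled against 266 human kinases for selectivity.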

NLK(h) = molecular target: T2, NLK(h) (Homo sapiens, UniProt Q9UBE8)
T2 sequence (Q9UBE8 1-527): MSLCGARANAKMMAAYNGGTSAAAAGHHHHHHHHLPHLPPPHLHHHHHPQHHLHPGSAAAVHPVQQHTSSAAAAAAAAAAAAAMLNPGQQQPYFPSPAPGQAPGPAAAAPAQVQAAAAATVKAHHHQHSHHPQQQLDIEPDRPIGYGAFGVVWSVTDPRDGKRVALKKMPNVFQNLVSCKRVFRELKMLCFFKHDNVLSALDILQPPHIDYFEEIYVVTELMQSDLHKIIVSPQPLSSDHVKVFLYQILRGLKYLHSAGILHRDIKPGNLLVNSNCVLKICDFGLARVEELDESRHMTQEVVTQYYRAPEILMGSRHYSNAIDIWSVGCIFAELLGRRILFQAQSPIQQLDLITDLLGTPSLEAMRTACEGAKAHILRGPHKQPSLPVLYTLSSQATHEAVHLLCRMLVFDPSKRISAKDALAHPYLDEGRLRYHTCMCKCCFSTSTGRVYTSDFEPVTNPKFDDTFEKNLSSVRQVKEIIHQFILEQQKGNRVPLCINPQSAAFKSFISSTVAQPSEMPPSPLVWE
Summary of the method: as §1

cSRC(h) = cSRC(h) (Homo sapiens, UniProt P12931)
Summary of the method: as §1

TBK1(h) = molecular target: T3, TBK1(h) (Homo sapiens, UniProt Q9UHD2)
T3 sequence (Q9UHD2 1-729): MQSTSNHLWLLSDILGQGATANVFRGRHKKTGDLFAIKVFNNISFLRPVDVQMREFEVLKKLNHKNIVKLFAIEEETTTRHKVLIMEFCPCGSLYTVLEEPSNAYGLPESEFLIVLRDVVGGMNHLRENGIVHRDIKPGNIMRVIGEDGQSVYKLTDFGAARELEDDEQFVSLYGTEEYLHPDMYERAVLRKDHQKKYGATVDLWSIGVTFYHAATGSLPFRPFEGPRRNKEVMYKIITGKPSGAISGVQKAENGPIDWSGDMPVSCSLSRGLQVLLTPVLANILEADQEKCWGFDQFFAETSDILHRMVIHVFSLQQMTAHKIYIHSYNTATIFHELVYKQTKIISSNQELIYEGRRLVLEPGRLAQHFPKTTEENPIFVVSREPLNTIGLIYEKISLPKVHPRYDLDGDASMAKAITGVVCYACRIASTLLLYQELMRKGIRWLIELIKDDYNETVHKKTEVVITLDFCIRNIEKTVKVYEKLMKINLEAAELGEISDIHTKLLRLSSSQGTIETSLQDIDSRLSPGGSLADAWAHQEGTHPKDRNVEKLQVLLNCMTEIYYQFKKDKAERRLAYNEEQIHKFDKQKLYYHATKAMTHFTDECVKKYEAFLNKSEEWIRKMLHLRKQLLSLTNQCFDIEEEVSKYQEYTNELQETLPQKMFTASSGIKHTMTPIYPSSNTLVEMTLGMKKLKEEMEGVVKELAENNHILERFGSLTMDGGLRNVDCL
Summary of the method: as §1

GRK6(h) = molecular target: T4, GRK6(h) (Homo sapiens, UniProt P43250)
T4 construct: purchased Millipore
T4 sequence (P43250 whole entry): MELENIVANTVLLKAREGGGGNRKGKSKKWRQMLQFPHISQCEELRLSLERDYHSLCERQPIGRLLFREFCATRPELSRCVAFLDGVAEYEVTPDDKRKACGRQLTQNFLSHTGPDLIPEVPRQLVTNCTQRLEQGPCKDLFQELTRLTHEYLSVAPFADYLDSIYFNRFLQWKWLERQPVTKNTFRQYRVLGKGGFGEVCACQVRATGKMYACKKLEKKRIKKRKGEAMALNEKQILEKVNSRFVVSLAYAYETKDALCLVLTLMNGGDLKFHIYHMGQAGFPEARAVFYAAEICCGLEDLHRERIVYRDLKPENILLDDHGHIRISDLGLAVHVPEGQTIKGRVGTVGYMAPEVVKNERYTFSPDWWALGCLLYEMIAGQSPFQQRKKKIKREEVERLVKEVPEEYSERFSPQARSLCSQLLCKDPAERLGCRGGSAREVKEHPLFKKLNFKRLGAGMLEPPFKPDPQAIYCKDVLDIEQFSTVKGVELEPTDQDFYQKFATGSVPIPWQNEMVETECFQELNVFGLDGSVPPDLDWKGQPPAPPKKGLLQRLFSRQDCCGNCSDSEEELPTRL
Summary of the method: as §1

KDR(h) = KDR(h) (Homo sapiens, UniProt P35968)
Chain of KDR(h) (P35968 20-1356): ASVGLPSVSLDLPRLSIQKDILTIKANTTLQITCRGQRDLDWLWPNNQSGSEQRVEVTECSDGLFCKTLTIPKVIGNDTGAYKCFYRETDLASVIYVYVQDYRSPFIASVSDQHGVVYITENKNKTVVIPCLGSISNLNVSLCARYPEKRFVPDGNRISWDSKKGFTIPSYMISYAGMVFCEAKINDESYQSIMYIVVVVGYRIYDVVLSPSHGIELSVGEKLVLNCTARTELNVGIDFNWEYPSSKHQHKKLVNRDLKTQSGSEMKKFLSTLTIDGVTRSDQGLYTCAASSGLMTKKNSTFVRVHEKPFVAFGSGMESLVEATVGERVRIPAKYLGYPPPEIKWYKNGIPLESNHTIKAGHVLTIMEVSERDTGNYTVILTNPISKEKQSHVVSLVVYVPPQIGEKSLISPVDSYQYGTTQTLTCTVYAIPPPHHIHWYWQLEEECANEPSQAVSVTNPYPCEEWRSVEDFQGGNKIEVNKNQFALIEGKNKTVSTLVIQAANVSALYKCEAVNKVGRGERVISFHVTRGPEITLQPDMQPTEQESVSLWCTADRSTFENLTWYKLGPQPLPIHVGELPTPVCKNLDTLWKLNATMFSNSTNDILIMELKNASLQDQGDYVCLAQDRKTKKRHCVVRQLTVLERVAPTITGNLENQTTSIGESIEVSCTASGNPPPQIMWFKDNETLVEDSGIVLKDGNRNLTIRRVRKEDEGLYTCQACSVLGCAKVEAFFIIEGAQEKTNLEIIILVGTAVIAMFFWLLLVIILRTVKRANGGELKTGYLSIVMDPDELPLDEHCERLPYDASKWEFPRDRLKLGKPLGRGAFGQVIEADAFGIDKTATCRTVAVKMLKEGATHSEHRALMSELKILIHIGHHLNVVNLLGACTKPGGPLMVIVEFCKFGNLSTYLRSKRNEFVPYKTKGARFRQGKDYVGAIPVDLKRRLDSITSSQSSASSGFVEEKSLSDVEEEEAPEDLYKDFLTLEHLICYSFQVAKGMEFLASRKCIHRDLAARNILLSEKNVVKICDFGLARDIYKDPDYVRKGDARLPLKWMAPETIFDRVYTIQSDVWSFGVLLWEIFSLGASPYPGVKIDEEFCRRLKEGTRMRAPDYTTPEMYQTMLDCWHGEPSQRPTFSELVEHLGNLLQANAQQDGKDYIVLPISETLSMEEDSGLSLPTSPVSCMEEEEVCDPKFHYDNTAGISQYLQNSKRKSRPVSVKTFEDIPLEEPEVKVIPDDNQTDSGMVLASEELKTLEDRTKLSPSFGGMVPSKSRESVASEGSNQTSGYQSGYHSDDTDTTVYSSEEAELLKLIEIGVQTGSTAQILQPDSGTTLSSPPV
Summary of the method: as §1

MRCKβ(h) = MRCKβ(h) (Homo sapiens, UniProt Q9Y5S2)
Chain of MRCKβ(h) (Q9Y5S2 whole entry): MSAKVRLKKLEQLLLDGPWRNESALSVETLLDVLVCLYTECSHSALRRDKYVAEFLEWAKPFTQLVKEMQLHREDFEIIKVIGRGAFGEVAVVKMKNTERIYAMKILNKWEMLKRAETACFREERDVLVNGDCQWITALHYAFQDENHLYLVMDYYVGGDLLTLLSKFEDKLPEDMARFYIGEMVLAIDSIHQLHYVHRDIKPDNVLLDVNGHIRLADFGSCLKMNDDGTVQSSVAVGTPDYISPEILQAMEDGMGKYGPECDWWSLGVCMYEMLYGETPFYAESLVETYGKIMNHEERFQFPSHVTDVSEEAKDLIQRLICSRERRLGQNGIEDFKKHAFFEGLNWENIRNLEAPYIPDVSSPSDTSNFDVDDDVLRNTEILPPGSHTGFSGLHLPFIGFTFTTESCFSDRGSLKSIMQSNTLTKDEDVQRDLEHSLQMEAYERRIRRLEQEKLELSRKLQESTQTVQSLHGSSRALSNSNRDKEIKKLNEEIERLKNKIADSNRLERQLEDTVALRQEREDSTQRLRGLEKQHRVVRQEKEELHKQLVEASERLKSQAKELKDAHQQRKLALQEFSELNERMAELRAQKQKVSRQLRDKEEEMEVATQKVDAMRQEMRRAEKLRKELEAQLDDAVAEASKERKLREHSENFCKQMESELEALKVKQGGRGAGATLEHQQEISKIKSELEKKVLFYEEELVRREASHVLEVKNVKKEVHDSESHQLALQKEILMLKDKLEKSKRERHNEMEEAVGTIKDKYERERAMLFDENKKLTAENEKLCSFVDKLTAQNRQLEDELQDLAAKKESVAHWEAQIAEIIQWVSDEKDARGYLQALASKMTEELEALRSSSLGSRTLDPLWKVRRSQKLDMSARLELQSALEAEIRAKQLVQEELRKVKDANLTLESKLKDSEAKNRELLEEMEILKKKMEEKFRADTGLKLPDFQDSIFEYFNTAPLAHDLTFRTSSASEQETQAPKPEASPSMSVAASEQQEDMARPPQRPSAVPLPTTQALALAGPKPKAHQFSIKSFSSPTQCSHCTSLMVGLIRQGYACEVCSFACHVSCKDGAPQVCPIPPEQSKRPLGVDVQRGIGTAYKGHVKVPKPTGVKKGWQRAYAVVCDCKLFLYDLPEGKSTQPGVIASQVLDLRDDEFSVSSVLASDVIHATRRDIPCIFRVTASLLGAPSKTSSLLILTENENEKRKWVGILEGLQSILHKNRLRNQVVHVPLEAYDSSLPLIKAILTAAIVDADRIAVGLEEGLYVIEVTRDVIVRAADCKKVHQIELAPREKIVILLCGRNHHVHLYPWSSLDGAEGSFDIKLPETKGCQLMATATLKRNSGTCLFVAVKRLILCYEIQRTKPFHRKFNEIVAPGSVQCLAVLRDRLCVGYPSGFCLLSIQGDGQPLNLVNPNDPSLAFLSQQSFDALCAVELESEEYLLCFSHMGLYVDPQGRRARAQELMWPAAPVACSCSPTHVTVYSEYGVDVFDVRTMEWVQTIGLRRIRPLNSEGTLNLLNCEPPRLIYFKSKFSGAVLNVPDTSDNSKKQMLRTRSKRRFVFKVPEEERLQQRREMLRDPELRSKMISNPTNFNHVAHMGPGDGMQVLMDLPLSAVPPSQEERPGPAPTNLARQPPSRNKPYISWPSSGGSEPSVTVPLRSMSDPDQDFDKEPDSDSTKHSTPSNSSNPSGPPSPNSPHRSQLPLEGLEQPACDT
Summary of the method: as §1

ACK1(h) = ACK1(h) (Homo sapiens, UniProt Q07912)
Chain of ACK1(h) (Q07912 whole entry): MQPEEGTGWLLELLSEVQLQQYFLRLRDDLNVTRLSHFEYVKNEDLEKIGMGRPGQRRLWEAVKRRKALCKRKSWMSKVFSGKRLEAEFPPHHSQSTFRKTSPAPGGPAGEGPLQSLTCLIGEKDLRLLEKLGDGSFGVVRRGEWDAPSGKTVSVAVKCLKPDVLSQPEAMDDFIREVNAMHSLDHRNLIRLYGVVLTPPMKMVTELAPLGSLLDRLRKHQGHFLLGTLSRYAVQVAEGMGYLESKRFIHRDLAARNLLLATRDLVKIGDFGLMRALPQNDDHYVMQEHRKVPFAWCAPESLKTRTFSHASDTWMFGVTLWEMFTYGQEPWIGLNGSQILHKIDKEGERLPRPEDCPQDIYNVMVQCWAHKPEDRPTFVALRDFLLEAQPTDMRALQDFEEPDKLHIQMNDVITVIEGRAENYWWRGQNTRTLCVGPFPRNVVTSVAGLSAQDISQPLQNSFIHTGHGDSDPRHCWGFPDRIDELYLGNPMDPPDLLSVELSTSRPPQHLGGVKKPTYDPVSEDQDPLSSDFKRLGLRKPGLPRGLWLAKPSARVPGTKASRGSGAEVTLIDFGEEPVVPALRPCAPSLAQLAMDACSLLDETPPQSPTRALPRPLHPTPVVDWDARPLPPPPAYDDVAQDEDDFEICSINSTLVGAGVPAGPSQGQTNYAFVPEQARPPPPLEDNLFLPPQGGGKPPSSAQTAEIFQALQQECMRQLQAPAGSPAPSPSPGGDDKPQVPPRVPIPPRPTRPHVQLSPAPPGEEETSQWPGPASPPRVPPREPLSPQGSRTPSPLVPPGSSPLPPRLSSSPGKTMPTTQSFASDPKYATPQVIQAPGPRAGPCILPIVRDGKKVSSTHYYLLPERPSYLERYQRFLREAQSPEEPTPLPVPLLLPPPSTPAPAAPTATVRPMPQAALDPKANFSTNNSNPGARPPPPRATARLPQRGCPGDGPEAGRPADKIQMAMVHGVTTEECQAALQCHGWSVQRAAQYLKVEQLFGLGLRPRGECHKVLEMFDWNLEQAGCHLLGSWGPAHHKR
Summary of the method: as §1

| Sequence | Tec(h) activated % activity (Tec(h) activated) [%] | NLK(h) % activity (NLK(h)) [%] | cSRC(h) % activity (cSRC(h)) [%] | TBK1(h) % activity (TBK1(h)) [%] | GRK6(h) % activity (GRK6(h)) [%] | KDR(h) % activity (KDR(h)) [%] | MRCKβ(h) % activity (MRCKβ(h)) [%] | ACK1(h) % activity (ACK1(h)) [%] |
| --- | --- | --- | --- | --- | --- | --- | --- | --- |
| HRRIKAWLKKIKALARQLGVAA (Mammalian) [MMI-0500] | 33 | 19 | 30 | 16 | 174 | 15 | −10 | 64 |
| FAKLAARLYRKALARQLGVAA [MMI-0300] | 56 | 87 | 26 | 37 | 147 | 101 | 83 |  |
| YARAAARQARAKALNRQLGVA (Mammalian) [MMI-0200] | 77 |  | 32 | 98 | 132 | 110 |  | 97 |
| KAFAKLAARLYRKALARQLGVAA [MMI-0400] | 29 | 90 | 14 | 39 | 141 | 94 | 71 | 95 |
